The supplement of paper PMC10126150
± gives the standard deviation of the averaged measurements.

Tested on: ATP
Experiment: switch fluorescence ratio, 500 uM ATP over buffer (Cy3 cluster intensity, sum of 5 cycles each) (fold (ratio)); higher = stronger signal-on switching upon ATP binding; sequences stand for … in TCGTCGGCAGCGTCAGATGTGTATAAGAGACAGTTTTTTTTTTTTTTTTTTTTTTTTT…TC
Conditions: aptamer strand: ATP DNA aptamer (quencher-CACCTGGGGGAGTATTGCGGAGGAAGG + anchor), 100 nM annealed; ATP concentration: 500 uM
Procedure, shortened: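 Imaging in selection buffer was followed by imaging after 15 min with 500 uM ATP at 22 °C, for Cy3-labelled switching-strand clusters annealed to 100 nM quencher-labelled ATP aptamer on a modified Illumina MiSeq flow-cell. Five of these buffer/ATP cycles ran, separated by NaOH stripping and re-annealing. The fluorescence ratio per cluster is summed target-cycle over summed buffer-cycle Cy3 intensity, averaged per switch-domain sequence; clusters outside 100-1000 RFU were removed.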
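Also: ATP exposure 15 min at 22 °C before imaging.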

Sequence	switch fluorescence ratio
AGGGGAAGAC	1.29 ± 0.41
CTGTGACCGT	1.02 ± 0.025
GGGGCTGAGG	0.93589 ± 0.00088
CAGGAATAGC	1.25 ± 0.044
ATGTAAGTGC	0.967 ± 0.064
ATAGTTCTAC	0.987 ± 0.0074
CGGGTTTTTT	0.988 ± 0.032
TAGTCGTCGT	1.02 ± 0.0021
AAATCGCGGA	1.05 ± 0.011
AATAGAAAAT	0.97 ± 0.061
TTTTTGTT	0.99 ± 0.0068
AGAAAGAGGG	1.002 ± 0.0013
TTACTCGGTC	0.99 ± 0.052
AATGCGTGTG	1.12 ± 0.15
TGATTCCGCT	1.41 ± 0.025
ATGGGTGTCC	1.004 ± 0.0056
TAGTACTAGA	1.03 ± 0.02
CGTGGTGGAG	1 ± 0.045
TTCACGGCCC	1.04 ± 0.013
AGGGAATTGG	1.01 ± 0.044
TTAAGGTCGG	1 ± 0.012
AAAGAAGGGA	0.981 ± 0.015
CATTTGAGGG	0.988 ± 0.034
ATTATAGTAA	0.9886 ± 0.0022
GCGGGGGAAA	1.02 ± 0.09

Sequence	switch fluorescence ratio
GGGGTTGCGA	0.996 ± 0.018
CGGCAAGTGC	2.19 ± 1
GAACGATGTT	0.9787 ± 0.0032
TTATTAGCTT	0.9916 ± 0.004
GCGGAGCTTT	1.01 ± 0.015
TCAGGATATG	0.988 ± 0.035
TTACGGGGCA	1.04 ± 0.019
GTGTTAGGGG	1.02 ± 0.069
TTTTAATGGG	0.999 ± 0.02
TGTTGTTAAT	0.999 ± 0.019
GCCTTACGGT	1.04 ± 0.038
ATGAGGGGGG	0.986 ± 0.031
TACGAAGGGG	1.02 ± 0.018
CTGTAGGGAC	1.18 ± 0.025
CCTTGGTGAG	1.01 ± 0.014
CATTTTTGGG	0.98798 ± 0.00089
ATTATGTCTG	0.966 ± 0.071
GAGAGATAGT	1.03 ± 0.015
TTTGTATTGT	1.019 ± 0.0089
GGCATCGGAC	1.04 ± 0.015
AGGGGTGATG	0.9827 ± 0.001
TTGAAGGCTT	0.997 ± 0.013
TTCGTGACCT	1.1 ± 0.094
ATCGGAACCT	2.15 ± 0.1
ATGTCAAGGC	1.05 ± 0.052

Sequence	switch fluorescence ratio
CCAAGTGAC	1.26 ± 0.028
CGCGGAACTG	1.09 ± 0.016
GTTCGTTGAC	0.9862 ± 0.0067
CAAAGGACGG	1.25 ± 0.38
CTTAACGGCG	0.968 ± 0.044
ATATACTATG	1.05 ± 0.026
GGTTAAAGCG	1.02 ± 0.013
TGCCCTATTT	0.986 ± 0.025
GGGGATGCGA	1.09 ± 0.1
GGAGTTTTGA	0.982 ± 0.02
TATTCGATTC	1.04 ± 0.017
TGAGAAAGGG	0.982 ± 0.0019
TTAGTTTTTT	1.01 ± 0.019
GGGTCTGCAC	0.997 ± 0.013
AGCTTGTCGG	1.01 ± 0.025
AGTTCCTTAG	1.05 ± 0.043
GTGTTTAACC	0.984 ± 0.021
ACATAAGTGG	1.01 ± 0.011
AGTTACGGGC	1.01 ± 0.017
GGATTTTTTC	1.02 ± 0.037
GGTTTTGCCA	0.995 ± 0.034
GGGTTTTGGG	0.979 ± 0.064
GTTTTTACGG	1.04 ± 0.0059
TTTATGATTT	1 ± 0.024
TTTGTTAGAC	1.03 ± 0.022

Sequence	switch fluorescence ratio
TTTTGTTGTT	0.995 ± 0.035
AAATCTTAAT	1.002 ± 0.007
TTAGATTGCG	0.973 ± 0.026
GCTGGGGGCC	0.981 ± 0.028
TAAAAGTTTA	1.04 ± 0.016
ATACGGGGGT	1.005 ± 0.0076
GACGAGCGGG	1 ± 0.025
ATTATCAGTT	0.987 ± 0.021
TATCTACAAT	1.01 ± 0.02
TTGGTACTGA	1.04 ± 0.049
GGTTATAATG	1.02 ± 0.012
AGGGAAGAAC	1.006 ± 0.0073
CTGCGTGCGG	0.99635 ± 0.00049
ACTTGAGTTT	0.988 ± 0.01
TGGCGATAAT	1.05 ± 0.031
TAATTTAAGA	1.01 ± 0.013
GGTGGGGTTT	0.999 ± 0.054
CAGAGTCGGG	0.9963 ± 0.009
CCGGCGGAAG	1.003 ± 0.0011
GCATATTTTT	1.026 ± 0.0032
GTAAGTGAGC	1.034 ± 0.0026
AAGTGTCTTG	0.999 ± 0.05
CGCATGTAAC	3.43 ± 0.81
CATGTATGGG	0.9833 ± 0.0095
CGCATTGGGG	1.13 ± 0.037

Sequence	switch fluorescence ratio
TGTTGGGGTG	0.997 ± 0.045
AATCTGGGGC	0.968 ± 0.011
TTGGATTTTC	1.04 ± 0.032
ATGTCATAAA	1.0269 ± 0.0006
GCATTGGGGC	0.9893 ± 0.0098
CGGATTAGGG	1 ± 0.022
CTTATTTGGT	0.992 ± 0.035
ATTAAACGGG	0.997 ± 0.012
TGCGGGCAAT	1.1 ± 0.039
CGGAAGTTAT	1.01 ± 0.04
GTGCGATTGG	1.033 ± 0.0092
GAACGGTATG	1.02 ± 0.051
CTAGTACGGG	1.04 ± 0.031
GCATTTTTCT	0.982 ± 0.031
TCCGGGGTGC	2.36 ± 1
GCGGCCTGGG	1.02 ± 0.049
GACAGACGGG	1.13 ± 0.049
GGAAAAATGA	1 ± 0.034
AGTTAATTGA	0.9704 ± 0.0093
ATTTTTTCAA	0.981 ± 0.015
GTGCTTTTGG	0.9997 ± 0.008
AACCTTTTGG	1.03 ± 0.048
TTTGGCTGGG	0.985 ± 0.02
ACTGAGTTGT	1.04 ± 0.038
GAGCGTAACG	0.9999 ± 0.0027

Sequence	switch fluorescence ratio
TAATGGAGGG	0.965 ± 0.047
CAGACGGATT	0.996 ± 0.0085
CCTGGGGGTG	1.14 ± 0.074
ACCTATCCGG	1.03 ± 0.017
ATGTAAATGC	0.995 ± 0.02
GGGGGGGCAT	1.02 ± 0.031
TTGTGGATTA	1 ± 0.027
TACGTGCATT	1.0476 ± 0.00035
TTCTGAAACA	0.969 ± 0.036
TCGGTGTTCA	1 ± 0.011
CACCGAGATT	1.07 ± 0.076
TTTTAACGGC	0.971 ± 0.082
GTTTAATCCG	0.975 ± 0.013
CTGGGGAAAG	1.02 ± 0.033
GCTAACGGAG	1.0112 ± 0.00048
TTTGTTATGT	0.988 ± 0.019
TAAAAGGGCT	0.999 ± 0.011
GGTTAGAACG	1.02 ± 0.06
TTACAGTTTT	0.9442 ± 0.0036
ATATTGGCAT	1.02 ± 0.026
ACATCCGTCG	1.06 ± 0.022
AGGGTATTTC	1.02 ± 0.012
ACCTGGCACA	1.09 ± 0.012
AATCCTATCA	1.02 ± 0.014
TCCTGTATGT	0.9981 ± 0.0018

Sequence	switch fluorescence ratio
AACTAAATCT	1.023 ± 0.00042
TAAGGCAC	1.04 ± 0.017
TTACGATGGG	0.97086 ± 0.00075
CGAGCGGGGG	1.01 ± 0.047
CTGTCGCTTA	1.01 ± 0.019
CGTGCGGTAT	0.987 ± 0.039
TCCGTGCGGT	1.04 ± 0.066
TTAGCATAGT	0.98 ± 0.024
CAAGAGAATG	0.999 ± 0.037
GAGTGATAAG	1 ± 0.017
GCTCTTGTCT	0.985 ± 0.061
CAGGTAGTCT	0.997 ± 0.024
TAAAAGTG	0.961 ± 0.05
GGCATGCCGG	1.014 ± 0.0089
GATGCGGTG	1 ± 0.012
AGAGGGGTTA	1.01 ± 0.056
TATTGAGGGA	1.017 ± 0.0031
TATCGTAAAT	1 ± 0.029
GAGTAGGAGC	1.02 ± 0.033
AAGCGCTGTT	1.003 ± 0.0073
AATTTTGGGT	1 ± 0.041
GGGTTAACGT	0.987 ± 0.017
GGGGGGCGTT	0.998 ± 0.017
CATAGCGATA	3.48 ± 0.28
GGATAAGGTT	0.9871 ± 0.0022

Sequence	switch fluorescence ratio
TGGGTAAGGT	0.993 ± 0.028
AAAGGCATGT	1.04 ± 0.017
ACGAGCCATG	1.1 ± 0.015
AAGGTTAGGG	0.984 ± 0.029
TTAGCGCCGG	1.03 ± 0.034
AAGGTATATA	0.9938 ± 0.0031
CATAATGGTG	1.02 ± 0.013
CGATGGTGGG	0.987 ± 0.0088
GCGGTGATGG	1 ± 0.035
AAGGGTTGTT	1.01 ± 0.032
TTTGACTATG	0.999 ± 0.022
TTTATTAAAA	0.99 ± 0.038
AGGGGGGGTT	0.992 ± 0.033
TGGACGGGTT	1.02 ± 0.014
GTTGTTTTCG	0.987 ± 0.039
ATGTTAAATC	0.96 ± 0.029
TAATTTAGTG	0.9858 ± 0.0056
CGTTGGTGAG	0.9373 ± 0.0065
GAGGCGAGTC	1.06 ± 0.029
AAAACTTTAC	1.2918 ± 0.00043
GAGTATTTTC	1.015 ± 0.0065
GTTTGGGGGC	1.03 ± 0.043
CGTCGCGGGC	1.0404 ± 0.00051
TTTATGCTCC	1.086 ± 0.0031
TCGGGGGGAT	1.21 ± 0.36
